Source: patent US20250313631A1 (HUMMINGBIRD BIOSCIENCE PTE, published 2025)

T1: recombinant mouse VISTA (His-tagged) (mouse, UniProt Q9D659 33-191)
T1 construct: also called murine VISTA; mVISTA
T1 sequence (looked up): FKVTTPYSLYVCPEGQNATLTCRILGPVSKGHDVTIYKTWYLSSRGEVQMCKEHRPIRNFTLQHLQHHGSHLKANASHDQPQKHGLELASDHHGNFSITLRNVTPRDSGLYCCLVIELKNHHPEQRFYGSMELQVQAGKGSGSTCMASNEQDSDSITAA

T2: mouse VISTA expressed on cells (mouse, UniProt Q9D659 33-308)
T2 construct: whole, on cells; also called murine VISTA on transfected cells; VISTA on mouse CD11b+ myeloid cells
T2 sequence (looked up): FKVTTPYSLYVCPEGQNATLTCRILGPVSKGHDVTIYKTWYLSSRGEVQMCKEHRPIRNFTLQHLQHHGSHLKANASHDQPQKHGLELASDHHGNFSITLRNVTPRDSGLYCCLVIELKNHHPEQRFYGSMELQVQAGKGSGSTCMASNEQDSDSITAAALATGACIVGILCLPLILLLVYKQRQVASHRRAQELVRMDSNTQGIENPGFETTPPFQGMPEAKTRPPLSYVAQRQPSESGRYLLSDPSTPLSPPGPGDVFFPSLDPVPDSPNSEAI

T3: rat VISTA expressed on cells (rat, UniProt A0ABK0L5H3 33-310)
T3 construct: whole, on cells; also called rat VISTA on HEK293T cells; VISTA on rat CD11b+ myeloid cells
T3 sequence: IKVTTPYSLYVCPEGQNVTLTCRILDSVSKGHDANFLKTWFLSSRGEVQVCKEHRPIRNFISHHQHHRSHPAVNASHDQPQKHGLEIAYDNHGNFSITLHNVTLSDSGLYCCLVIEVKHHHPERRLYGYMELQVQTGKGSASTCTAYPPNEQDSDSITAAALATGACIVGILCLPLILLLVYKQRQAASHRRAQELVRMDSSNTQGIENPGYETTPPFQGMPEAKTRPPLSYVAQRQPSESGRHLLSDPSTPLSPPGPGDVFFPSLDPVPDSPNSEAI

T4: human B7H7 (human, UniProt Q9UM44 23-344)
T4 construct: also called HHLA2
T4 sequence (looked up): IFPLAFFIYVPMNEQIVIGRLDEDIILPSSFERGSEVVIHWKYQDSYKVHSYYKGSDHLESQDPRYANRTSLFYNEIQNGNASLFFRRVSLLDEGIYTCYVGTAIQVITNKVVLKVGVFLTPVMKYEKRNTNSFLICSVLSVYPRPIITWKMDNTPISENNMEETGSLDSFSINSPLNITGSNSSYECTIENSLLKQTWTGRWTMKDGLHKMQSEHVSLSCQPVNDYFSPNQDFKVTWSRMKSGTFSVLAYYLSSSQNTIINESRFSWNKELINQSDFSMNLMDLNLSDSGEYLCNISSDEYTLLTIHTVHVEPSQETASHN


Tests used:
[1] = biological target: T5, recombinant human VISTA (His-tagged) (human, UniProt Q9H7M9 33-194); experiment: BLI (Octet QK384): His-tagged human VISTA on anti-Penta-HIS tips, V4 1000 to 31.3 nM as analyte, global fit; value of the table column kdis(1/s)
T5 construct: bought soluble protein (Sino Biological); also called hVISTA; human VISTA polypeptide

[2] = biological target: T1, recombinant mouse VISTA (His-tagged); experiment: ELISA, VISTA-HIS protein coated; ELISA, mouse VISTA-HIS
[3] = biological target: T5, recombinant human VISTA (His-tagged); experiment: antigen-binding ELISA; HMBD-002 10 mg/mL in F4, day 0
[4] = biological target: T5, recombinant human VISTA (His-tagged); experiment: antigen-binding ELISA; HMBD-002 in F3, day 20 at 40°C
[5] = biological target: T5, recombinant human VISTA (His-tagged); experiment: antigen-binding ELISA; HMBD-002 in F4, day 20 at 40°C
[6] = biological target: T5, recombinant human VISTA (His-tagged); experiment: antigen-binding ELISA; HMBD-002 in F4, day 30 at 40°C
[7] = biological target: T5, recombinant human VISTA (His-tagged); experiment: antigen-binding ELISA; HMBD-002 in F5, day 30 at 40°C
[8] = biological target: T6, human VISTA expressed on cells (human, UniProt Q9H7M9 33-311); experiment: flow cytometry, HEK293T cells expressing the VISTA ortholog
T6 construct: also called HEK293 VISTA O/E; HEK293T or HEK293-6E cells overexpressing human VISTA

[9] = biological target: T2, mouse VISTA expressed on cells; experiment: as above
[10] = biological target: T3, rat VISTA expressed on cells; experiment: as above
[11] = biological target: T2, mouse VISTA expressed on cells; experiment: flow cytometry, endogenous VISTA on CD11b+ myeloid cells of PBMCs
[12] = biological target: T4, human B7H7; experiment: ELISA, plate coated with human B7H7, antibody titrated
[13] = biological target: human PD-1 (human, UniProt Q15116 25-167); experiment: ELISA, plate coated with human PD-1, antibody titrated
Sequence of human PD-1 (Q15116 25-167 limits assumed): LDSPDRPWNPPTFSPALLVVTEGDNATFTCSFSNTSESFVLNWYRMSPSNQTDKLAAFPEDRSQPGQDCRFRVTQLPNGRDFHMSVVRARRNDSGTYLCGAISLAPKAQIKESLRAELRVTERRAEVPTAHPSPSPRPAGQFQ

[14] = biological target: T7, human PD-L1 (human, UniProt Q9NZQ7 19-239); experiment: ELISA, plate coated with human B7H1 (PDL1), antibody titrated
T7 construct: captured through a His tag in the BLI experiments; also called hPD-L1; B7H1/PDL-1
T7 sequence (Q9NZQ7 19-239 limits assumed): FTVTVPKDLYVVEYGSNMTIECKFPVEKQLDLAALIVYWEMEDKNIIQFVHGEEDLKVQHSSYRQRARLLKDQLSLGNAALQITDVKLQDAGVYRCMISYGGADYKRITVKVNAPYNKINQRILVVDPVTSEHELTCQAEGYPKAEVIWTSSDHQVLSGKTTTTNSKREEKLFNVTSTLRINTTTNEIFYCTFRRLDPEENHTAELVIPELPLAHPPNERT

[15] = biological target: T1, recombinant mouse VISTA (His-tagged); experiment: SPR (Biacore), VISTA-HIS captured, antibody as analyte, 1:1 model; SPR (Biacore), mouse VISTA
[16] = biological target: human C1q protein (human, UniProt P02745 23-245; P02746 28-253; P02747 29-245); experiment: ELISA, plate coated with human C1q protein, detection with HRP anti-human Fc antibody
Sequence of human C1q protein (P02745 23-245 limits assumed, chain 1 of 3): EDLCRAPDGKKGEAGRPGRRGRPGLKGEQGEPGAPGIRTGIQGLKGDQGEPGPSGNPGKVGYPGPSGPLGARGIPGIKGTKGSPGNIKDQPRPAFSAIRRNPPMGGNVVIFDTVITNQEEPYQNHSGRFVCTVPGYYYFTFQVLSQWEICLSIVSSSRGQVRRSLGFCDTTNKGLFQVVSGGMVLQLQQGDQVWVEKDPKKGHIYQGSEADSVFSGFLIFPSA
Sequence of human C1q protein (P02746 28-253 limits assumed, chain 2 of 3): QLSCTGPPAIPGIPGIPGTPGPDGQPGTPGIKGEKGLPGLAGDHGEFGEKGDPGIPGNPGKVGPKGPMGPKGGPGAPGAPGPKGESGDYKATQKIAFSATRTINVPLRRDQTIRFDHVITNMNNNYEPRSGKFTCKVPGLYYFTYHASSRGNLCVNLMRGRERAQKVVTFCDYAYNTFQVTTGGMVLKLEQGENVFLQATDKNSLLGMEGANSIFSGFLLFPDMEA
Sequence of human C1q protein (P02747 29-245 limits assumed, chain 3 of 3): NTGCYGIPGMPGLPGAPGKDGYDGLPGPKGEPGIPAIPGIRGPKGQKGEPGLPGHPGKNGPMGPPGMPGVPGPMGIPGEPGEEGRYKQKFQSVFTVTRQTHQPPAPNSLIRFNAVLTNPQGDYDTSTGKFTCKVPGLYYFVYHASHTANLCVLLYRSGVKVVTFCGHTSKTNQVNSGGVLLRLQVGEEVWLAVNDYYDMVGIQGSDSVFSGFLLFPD

[17] = biological target: T8, human FcγRIII (CD16a) (human, UniProt P08637 17-208); experiment: ELISA, plate coated with human CD16a (FcγRIII), detection with HRP anti-human Fc antibody
T8 construct: also called human CD16a
T8 sequence (P08637 17-208 limits assumed): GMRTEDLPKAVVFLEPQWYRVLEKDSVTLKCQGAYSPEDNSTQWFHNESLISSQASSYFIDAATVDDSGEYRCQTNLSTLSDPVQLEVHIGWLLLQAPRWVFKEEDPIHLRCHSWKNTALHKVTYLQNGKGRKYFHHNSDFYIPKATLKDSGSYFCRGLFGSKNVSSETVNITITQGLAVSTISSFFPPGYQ

Row | koff [1] | EC50 [2] | EC50 [3] | EC50 [4] | EC50 [5] | EC50 [6] | EC50 [7] | EC50 [8] | EC50 [9] | EC50 [10] | EC50 [11] | binding result [12] | binding result [13] | binding result [14] | Kd [15] | binding result [16] | binding result [17] | Binder
1 | < 1e-07 s⁻¹ | – | – | – | – | – | – | – | – | – | – | – | – | – | – | – | – | anti-VISTA clone 4M2-C12 IgG1 (antibody, mouse variable regions on human IgG1/kappa constant regions; also called V4; V4pr) heavy: not shown light: DIVITQTPAILSTSPGEKVTMTCRASSSVGYIHWYQQKPGSSPKPWIYATSNLASGVPARFSGSGSGTSNSLTITRVEAEDAATYYCQQWSSYPPITFGGGTKLEVKRTVAAPSVFIFPPSDEQLKSGTASVVCLLNNFYPREAKVQWKVDNALQSGNSQESVTEQDSKDSTYSLSSTLTLSKADYEKHKVYACEVTHQGLSSPVTKSFNRGEC
2 | – | 0.00355 nM | 0.0357 nM | 0.0189 nM | 0.0205 nM | 0.0227 nM | 0.0223 nM | 3.74 nM | 8.94 nM | 4.13 nM | 111 nM | no binding (tested: about 3e-8 M) | no binding (tested: about 3e-8 M) | no binding (tested: about 3e-8 M) | 0.549 nM | no binding (tested: about 2e-7 M) | no binding (tested: about 2e-7 M) | V4-C26 hIgG4 (antibody, human IgG4 (S228P)/kappa format; also called HMBD-002; HMBD-002-V4C26) heavy: not shown light: EIVLTQSPATLSLSPGERATLSCRASSSVGYIHWYQQKPGQAPRPIIYTTSNRATGIPARFSGSGSGTDNTLTISSLEPEDSAVYYCQQWSSYPPITFGGGTKLEVKRTVAAPSVFIFPPSDEQLKSGTASVVCLLNNFYPREAKVQWKVDNALQSGNSQESVTEQDSKDSTYSLSSTLTLSKADYEKHKVYACEVTHQGLSSPVTKSFNRGEC
